Patent US20210107983A1 (Boehringer Ingelheim, published 2021)
Residue numbers refer to the chain shown, from its start.

T1: human B7H6 on HCT-15 cells (human, UniProt Q68D85 25-454)
T1 sequence (looked up): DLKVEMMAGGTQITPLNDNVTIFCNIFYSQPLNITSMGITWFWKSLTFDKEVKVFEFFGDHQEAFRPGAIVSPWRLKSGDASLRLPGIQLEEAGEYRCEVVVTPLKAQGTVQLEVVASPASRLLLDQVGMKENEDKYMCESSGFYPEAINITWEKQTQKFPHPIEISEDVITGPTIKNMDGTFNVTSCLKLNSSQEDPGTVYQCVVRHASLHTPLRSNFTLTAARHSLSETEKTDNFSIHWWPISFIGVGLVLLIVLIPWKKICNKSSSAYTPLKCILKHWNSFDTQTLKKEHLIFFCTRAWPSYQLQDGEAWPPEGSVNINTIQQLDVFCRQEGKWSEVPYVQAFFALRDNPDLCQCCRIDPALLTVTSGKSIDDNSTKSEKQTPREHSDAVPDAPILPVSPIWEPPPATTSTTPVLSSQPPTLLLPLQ

T2: Cyno B7H6-His (cynomolgus monkey)
T2 construct: also called CyB7H6; cyB7-H6
T2 chain: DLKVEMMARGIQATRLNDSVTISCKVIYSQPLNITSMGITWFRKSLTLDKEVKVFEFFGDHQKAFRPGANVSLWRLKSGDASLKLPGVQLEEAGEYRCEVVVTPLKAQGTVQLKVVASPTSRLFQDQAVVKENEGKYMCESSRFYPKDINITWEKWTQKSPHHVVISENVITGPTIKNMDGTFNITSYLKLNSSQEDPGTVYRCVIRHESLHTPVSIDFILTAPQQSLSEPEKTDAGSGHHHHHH

B1: B7H6#9/CD3#1 (bispecific antibody, human IgG1, kappa, lambda, L234A L235A)
chain 1: DIVLTQSPVSLAVSLGQRATISCRASESVDNFGVSFMNWFQQKPGQPPKLLIYAASNQGSGVPARFSGSGSGTDFSLNIHPLEEDDTAMYFCQQSKEVPWTFGGGTRLEIKRTVAAPSVFIFPPSDEQLKSGTASVVCLLNNFYPREAKVQWKVDNALQSGNSQESVTEQDSKDSTYSLSSTLTLSKADYEKHKVYACEVTHQGLSSPVTKSFNRGECGGGGSEGKSSGSGSESKSTEGKSSGSGSESKSTGGGGSQVQLQQPGAEMVRPGSSVKLSCKASDYTFTHYWIHWVKQRPLEGLEWIGIIGPSDNEIHYNQDFKDKATLTVDKSSNTAYLHLNSLTSEDSAVYYCARQIISMVVGTEYFDVWGTGTTVTVSSASTKGPSVFPLAPSSKSTSGGTAALGCLVKDYFPEPVTVSWNSGALTSGVHTFPAVLQSSGLYSLSSVVTVPSSSLGTQTYICNVNHKPSNTKVDKRVEPKSCDKTHTCPPCPAPEAAGGPSVFLFPPKPKDTLMISRTPEVTCVVVDVSHEDPEVKFNWYVDGVEVHNAKTKPREEQYNSTYRVVSVLTVLHQDWLNGKEYKCKVSNKALPAPIEKTISKAKGQPREPQVYTLPPSREEMTKNQVSLWCLVKGFYPSDIAVEWESNGQPENNYKTTPPVLDSDGSFFLYSKLTVDKSRWQQGNVFSCSVMHEALHNHYTQKSLSLSPG
chain 2: EAVVTQEPSLTVSPGGTVTLTCRSSTGAVTTSNYANWVQEKPGQLPRGLIGGTNKRAPWVPARFSGSLLGGKAALTLSGAQPEDEAEYFCALWYSNLWVFGGGTKLTVLGQPKAAPSVTLFPPSSEELQANKATLVCLISDFYPGAVKVAWKADGSPVNTGVETTTPSKQSNNKYAASSYLSLTPEQWKSHRSYSCQVTHEGSTVEKTVAPAECSGGGGSEGKSSGSGSESKSTEGKSSGSGSESKSTGGGGSEVQLVESGGGLVQPGGSLKLSCAASGFTFNTYAMNWVRQAPGKGLEWVARIRSKYNNYATYYADSVKDRFTISRDDSKNTAYLQMNNLKTEDTAVYYCVRHGNFGNSYVSWFAYWGQGTLVTVSAASTKGPSVFPLAPSSKSTSGGTAALGCLVKDYFPEPVTVSWNSGALTSGVHTFPAVLQSSGLYSLSSVVTVPSSSLGTQTYICNVNHKPSNTKVDKRVEPKSCDKTHTCPPCPAPEAAGGPSVFLFPPKPKDTLMISRTPEVTCVVVDVSHEDPEVKFNWYVDGVEVHNAKTKPREEQYNSTYRVVSVLTVLHQDWLNGKEYKCKVSNKALPAPIEKTISKAKGQPREPQVYTLPPSREEMTKNQVSLSCAVKGFYPSDIAVEWESNGQPENNYKTTPPVLDSDGSFFLVSKLTVDKSRWQQGNVFSCSVMHEALHNRFTQKSLSLSPG
notes: scFab-Fc heterodimer, one B7H6 chain and one CD3 chain
B2: B7H6#14/CD3#2 (bispecific antibody, human IgG1, kappa, L234A L235A)
chain 1: DIQMTQSPSSLSASVGDRVTITCKASQNVGKYVAWYQQKPGKAPKSLIYSASNRYDGVPSRFSGSGSGTDFTLTISSLQPEDFATYFCQQYISYPLTFGAGTKLEIKRTVAAPSVFIFPPSDEQLKSGTASVVCLLNNFYPREAKVQWKVDNALQSGNSQESVTEQDSKDSTYSLSSTLTLSKADYEKHKVYACEVTHQGLSSPVTKSFNRGECGGGGSEGKSSGSGSESKSTEGKSSGSGSESKSTGGGGSQVQLVQSGAEVKKPGASVKVSCKASGYTFTNYWMNWMKQAPGQGLEWIGGIYLNGDSTDYNEKFKGKVTMTVDTSTSTVYMELSSLRSEDTAVYYCTRRGDYFGDFWGQGTLVTVSSASTKGPSVFPLAPSSKSTSGGTAALGCLVKDYFPEPVTVSWNSGALTSGVHTFPAVLQSSGLYSLSSVVTVPSSSLGTQTYICNVNHKPSNTKVDKRVEPKSCDKTHTCPPCPAPEAAGGPSVFLFPPKPKDTLMISRTPEVTCVVVDVSHEDPEVKFNWYVDGVEVHNAKTKPREEQYNSTYRVVSVLTVLHQDWLNGKEYKCKVSNKALPAPIEKTISKAKGQPREPQVYTLPPSREEMTKNQVSLWCLVKGFYPSDIAVEWESNGQPENNYKTTPPVLDSDGSFFLYSKLTVDKSRWQQGNVFSCSVMHEALHNHYTQKSLSLSPG
chain 2: not shown
notes: scFab-Fc heterodimer
B3: B7H6#23/CD3#5 (bispecific antibody, human IgG1, kappa, L234A L235A)
chain 1: B2 chain 1 with G57A, N283S, N306S, D308E
chain 2: not shown
notes: scFab-Fc heterodimer

Key:
[1] = molecular target: T3, Fc-His-tagged human B7H6 ECD (human); assay: ELISA, plate coated with Fc-His-tagged human B7H6 ECD, anti-human IgG F(ab')2-peroxidase, TMB
T3 construct: also called huB7H6-ECD-Fc-His; recombinant human B7H6 ECD
Method: To assess binding of B7H6/CD3 binding proteins to recombinant human Fc-His-tagged B7H6 ECD and human Fc-His-tagged Ala-mutated B7H6 extracellular proteins as described in Example 3, MediSorp™ plates (Nunc, 467320) were coated with […] recombinant proteins overnight at 4° C. The next day, plates were blocked with 0.5% bovine serum albumin (BSA) in phosphate buffered saline (PBS) for 1 hour at room temperature (RT). Subsequently plates were washed with […] containing 0.05% TWEEN®20 viscous liquid and B7H6/CD3 binding proteins were incubated at concentrations ranging from 0.00001 to 10 μg/ml. After an additional washing step, bound B7H6/CD3 binding proteins were detected by a peroxidase conjugated goat anti-human IgG F(ab′)₂-specific secondary antibody (Jackson Immunoresearch) and visualized by TMB substrate solution (Bender Med Systems).

[2] = molecular target: T1, human B7H6 on HCT-15 cells; assay: cell-based or functional assay
[3] = molecular target: T4, chicken egg white lysozyme (chicken, UniProt P00698 19-147); assay: SPR, 1 µM binder over immobilized lysozyme
T4 construct: unrelated positively charged protein, amine-coupled to the chip; also called Lysozyme (positive)
T4 sequence (P00698 19-147): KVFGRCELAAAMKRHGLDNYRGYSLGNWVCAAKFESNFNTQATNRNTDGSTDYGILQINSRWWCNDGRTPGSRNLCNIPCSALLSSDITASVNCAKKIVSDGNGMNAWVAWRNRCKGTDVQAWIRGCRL
In short: (§1)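 Non-specific binding tested with samples at 1 μM in HBS-EP at 25 °C, 5 μL/min, over lysozyme or trypsin inhibitor amine-coupled to CM5 chip (3000–5000 RU). Association 10 min, dissociation 15 min.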

Cyno B7H6-His [4] = molecular target: T2, Cyno B7H6-His; assay: SPR, binder captured on Protein A/G, B7H6 analyte
In short: (§2)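 B7H6/CD3 binder captured (~700 RU) on a Protein A/G CM5 surface in HBS-EP+. Human or cyno B7H6 injected at 0–100 nM and human B7H1 at 0 nM and 1 μM, 300 s association and 1200 s dissociation. Data double-referenced against the reference flow cell and blank.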

Human B7H1 = molecular target: T5, Human B7H1 (human, UniProt Q9NZQ7 20-239); assay: SPR, binder captured on Protein A/G, HuB7H1 analyte
T5 construct: also called HuB7H1; huB7-H1
T5 sequence (Q9NZQ7 other isoform, or with tags, fused parts or gaps limits assumed): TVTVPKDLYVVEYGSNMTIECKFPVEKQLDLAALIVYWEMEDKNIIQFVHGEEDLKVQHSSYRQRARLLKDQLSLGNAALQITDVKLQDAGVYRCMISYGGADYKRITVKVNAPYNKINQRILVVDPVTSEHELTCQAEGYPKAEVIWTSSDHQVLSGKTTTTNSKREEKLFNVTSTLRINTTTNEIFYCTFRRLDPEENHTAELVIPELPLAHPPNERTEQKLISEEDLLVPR
In short: as §2

Cyno CD3 E+G HuFc-6xHis [5] = molecular target: T6, Cyno CD3 E+G HuFc-6xHis (cynomolgus monkey); assay: SPR, CD3E+G-hFc immobilized, binder analyte
T6 construct: also called CyCD3E+G-hFc; cyCD3
T6 sequence (chain, as listed by the source limits assumed): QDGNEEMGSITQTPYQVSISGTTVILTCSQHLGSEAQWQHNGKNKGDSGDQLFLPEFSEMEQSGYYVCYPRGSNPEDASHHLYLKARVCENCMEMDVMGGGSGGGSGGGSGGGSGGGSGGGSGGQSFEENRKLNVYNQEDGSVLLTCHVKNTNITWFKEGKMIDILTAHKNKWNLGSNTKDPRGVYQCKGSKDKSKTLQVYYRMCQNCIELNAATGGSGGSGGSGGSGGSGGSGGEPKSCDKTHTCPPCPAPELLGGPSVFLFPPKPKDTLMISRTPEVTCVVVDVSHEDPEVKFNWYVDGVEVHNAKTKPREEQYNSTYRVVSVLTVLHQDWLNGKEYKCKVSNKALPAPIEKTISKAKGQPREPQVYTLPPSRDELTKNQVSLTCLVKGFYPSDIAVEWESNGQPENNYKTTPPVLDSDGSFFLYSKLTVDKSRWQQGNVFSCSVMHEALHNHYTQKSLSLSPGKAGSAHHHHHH
In short: (§3)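 On a ProteOn XPR36, human and cyno CD3E+G-hFc were amine-coupled to a GLM chip at 0.4, 0.2 and 0.1 μg/mL in 10 mM acetate pH 4.5. B7H6/CD3 binding protein (0–100 nM) flowed in HBS-EP+ at 30 μL/min, with 300 s association and 600 s dissociation. Interspot and blank responses were subtracted.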

Human CD3 E+G HuFc-6xHis = molecular target: T7, Human CD3 E+G HuFc-6xHis (human); assay: SPR, CD3E+G-hFc immobilized, binder analyte
T7 construct: also called HuCD3E+G-hFc; huCD3
T7 sequence (chain, as listed by the source limits assumed): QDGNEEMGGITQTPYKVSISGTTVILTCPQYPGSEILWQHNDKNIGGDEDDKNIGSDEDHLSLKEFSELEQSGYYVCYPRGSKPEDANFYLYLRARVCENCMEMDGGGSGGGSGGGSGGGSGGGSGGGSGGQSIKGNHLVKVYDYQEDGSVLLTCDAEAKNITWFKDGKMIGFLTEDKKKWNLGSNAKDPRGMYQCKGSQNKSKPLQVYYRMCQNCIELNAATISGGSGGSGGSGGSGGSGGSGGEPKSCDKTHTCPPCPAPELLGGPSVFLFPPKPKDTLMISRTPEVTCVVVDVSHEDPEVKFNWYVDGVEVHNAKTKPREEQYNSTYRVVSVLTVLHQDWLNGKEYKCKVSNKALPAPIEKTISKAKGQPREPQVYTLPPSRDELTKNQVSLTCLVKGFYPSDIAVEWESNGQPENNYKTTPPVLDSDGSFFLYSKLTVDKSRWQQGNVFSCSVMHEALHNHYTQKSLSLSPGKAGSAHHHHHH
In short: as §3

[6] = molecular target: T8, trypsin inhibitor from Glycine max soybean (Glycine max (soybean)); assay: SPR, 1 µM binder over immobilized trypsin inhibitor
T8 construct: unrelated negatively charged protein, amine-coupled to the chip
T8 sequence (P01070 25-205): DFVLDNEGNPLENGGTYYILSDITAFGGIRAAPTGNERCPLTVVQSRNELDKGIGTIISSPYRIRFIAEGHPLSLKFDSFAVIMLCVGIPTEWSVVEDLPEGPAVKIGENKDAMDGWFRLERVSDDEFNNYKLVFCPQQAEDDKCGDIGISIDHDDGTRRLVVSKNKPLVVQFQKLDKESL
In short: as §1

CD3 on human T-cells = molecular target: T9, CD3 on human T-cells (human, UniProt P07766;P09693); assay: flow cytometry on purified human T-cells, PE anti-human secondary antibody
T9 construct: endogenous, on the surface of purified T-cells; also called human T-cells expressing CD3
T9 sequence (P07766 23-207, chain 1 of 2): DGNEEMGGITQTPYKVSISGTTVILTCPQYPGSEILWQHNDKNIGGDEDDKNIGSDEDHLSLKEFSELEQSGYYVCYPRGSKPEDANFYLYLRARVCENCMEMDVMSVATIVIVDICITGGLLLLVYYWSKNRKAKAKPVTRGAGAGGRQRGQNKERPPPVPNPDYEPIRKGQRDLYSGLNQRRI
T9 sequence (P09693 23-182, chain 2 of 2): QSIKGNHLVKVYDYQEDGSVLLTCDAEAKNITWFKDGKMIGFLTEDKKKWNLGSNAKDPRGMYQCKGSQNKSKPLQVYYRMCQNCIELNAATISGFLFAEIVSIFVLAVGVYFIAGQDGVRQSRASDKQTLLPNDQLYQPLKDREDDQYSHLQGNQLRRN
Method: T-cells were isolated by negative selection using the Pan T Cell Isolation Kit II (Miltenyi Biotec #130-091-156). In brief, cells were resuspended in 40 μl buffer PBS/0.5% BSA (Gibco ref #041-94553 M)/2 mM EDTA (Invitrogen ref #15575-038) per 10 Mio cells and incubated with 10 μl of Biotin-Antibody cocktail per 10 Mio cells for 5 min at 4° C. Subsequently, 30 μl buffer and 20 μl anti-biotin MACS® MicroBeds/10 million cells were added and incubated for 10 min at 4° C. Subsequently the mixture was placed in a pre-rinsed 25LS column (Miltenyi Biotec #130-042-401) in the magnetic field of suitable MACS® microbeads separator (Miltenyi Biotec). Flow-through was collected and washed in assay medium.
T-cells were stained with increasing concentrations of two-step purified B7H6/CD3 binding proteins in FACS buffer (PBS/0.5% BSA/0.05% sodium azide). Bound molecules were detected with PE-conjugated anti-human secondary antibody (Sigma-Aldrich, #P8047).

Cyno CD3 E+G HuFc-6xHis [7] = molecular target: T6, Cyno CD3 E+G HuFc-6xHis; assay: ratio of SPR KDs cyno/human
Cyno B7H6-His [8] = molecular target: T2, Cyno B7H6-His; assay: ratio of SPR KDs cyno/human

Row | Binder | EC50 (read off the curve) [1] [µg/mL] | EC50 [nM], 72 hour cytotoxicity assay, non-stimulated T-cells (Donor #1) as effector cells, HCT-15 cells as target cells [2] [nM] | Non-specific binding (RU) [3] [RU] | Kd (Cyno B7H6-His [4]) [nM] | binding result (Human B7H1) | Kd (Cyno CD3 E+G HuFc-6xHis [5]) [nM] | Kd (Human CD3 E+G HuFc-6xHis) [nM] | Non-specific binding (RU) [6] [RU] | binding result (CD3 on human T-cells) | cy/hu CD3 (Cyno CD3 E+G HuFc-6xHis [7]) | cy/hu B7-H6 (Cyno B7H6-His [8])
1 | B1 | ~0.05 | 0.44 |  |  |  |  |  |  |  |  | 
2 | B2 |  |  | 11.2 | 1 | no binding (tested: 1 µM) | 17.7 | 16.9 | 12.2 | binds | 1 | 0.9
3 | B3 |  |  | 15 | 1.9 | no binding (tested: 1 µM) | 3.7 | 2.8 | 115 | binds | 1.3 | 0.9
